From PMC6509359 (Molecular Cell, 2019) come the findings set out here.

Where a chain is given by its changes, count along the chain named. Names may count otherwise. “And” between values parts separate entries of the source, which are not always exact repeats. Equal values may be shown once.

B1: Human USP28 (1-703) (domain or fragment, UniProt Q96RU2 1-703, looked up)
chain: MTAELQQDDAAGAADGHGSSCQMLLNQLREITGIQDPSFLHEALKASNGDITQAVSLLTDERVKEPSQDTVATEPSEVEGSAANKEVLAKVIDLTHDNKDDLQAAIALSLLESPKIQADGRDLNRMHEATSAETKRSKRKRCEVWGENPNPNDWRRVDGWPVGLKNVGNTCWFSAVIQSLFQLPEFRRLVLSYSLPQNVLENCRSHTEKRNIMFMQELQYLFALMMGSNRKFVDPSAALDLLKGAFRSSEEQQQDVSEFTHKLLDWLEDAFQLAVNVNSPRNKSENPMVQLFYGTFLTEGVREGKPFCNNETFGQYPLQVNGYRNLDECLEGAMVEGDVELLPSDHSVKYGQERWFTKLPPVLTFELSRFEFNQSLGQPEKIHNKLEFPQIIYMDRYMYRSKELIRNKRECIRKLKEEIKILQQKLERYVKYGSGPARFPLPDMLKYVIEFASTKPASESCPPESDTHMTLPLSSVHCSVSDQTSKESTSTESSSQDVESTFSSPEDSLPKSKPLTSSRSSMEMPSQPAPRTVTDEEINFVKTCLQRWRSEIEQDIQDLKTCIASTTQTIEQMYCDPLLRQVPYRLHAVLVHEGQANAGHYWAYIYNQPRQSWLKYNDISVTESSWEEVERDSYGGLRNVSAYCLMYINDKLPYFNAEAAPTESDQMSEVEALSVELKHYIQEDNWRFEQEVEEWEEEQSCKI
notes: USP28, human, residues 1-703; source: E. coli Rosetta2(DE3)pLacI, purified (HisTrap, 3C protease, Resource Q, size exclusion)
B2: Chimera: Human USP28 (149-[AIM of Human USP25]-703) (domain or fragment)
chain: PNPNDWRRVDGWPVGLKNVGNTCWFSAVIQSLFQLPEFRRLVLSYSLPQNVLENCRSHTEKRNIMFMQELQYLFALMMGSNRKFVDPSAALDLLKGAFRSSEEQQQDVSEFTHKLLDWLEDAFQLAVNVNSPRNKSENPMVQLFYGTFLTEGVREGKPFCNNETFGQYPLQVNGYRNLDECLEGAMVEGDVELLPSDHSVKYGQERWFTKLPPVLTFELSRFEFNQSLGQPEKIHNKLEFPQIIYMDRYMYRSKELIRNKRECIRKLKEEIKILQQKLERYVKYGSGPARFPLPDMLKYVIEFASTKPASESCPPESDTHMTLPLSSVHCSVSDQTSKESTSTESSSQDVESTFSSPEDRSVIHKPFTQSRIPMEMPSQPAPRTVTDEEINFVKTCLQRWRSEIEQDIQDLKTCIASTTQTIEQMYCDPLLRQVPYRLHAVLVHEGQANAGHYWAYIYNQPRQSWLKYNDISVTESSWEEVERDSYGGLRNVSAYCLMYINDKLPYFNAEAAPTESDQMSEVEALSVELKHYIQEDNWRFEQEVEEWEEEQSCKI
B3: Human USP25 (157-714) P521S F522E (domain or fragment, UniProt Q9UHP3 157-714, looked up)
chain: NPYDRKRQDKAPVGLKNVGNTCWFSAVIQSLFNLLEFRRLVLNYKPPSNAQDLPRNQKEHRNLPFMRELRYLFALLVGTKRKYVDPSRAVEILKDAFKSNDSQQQDVSEFTHKLLDWLEDAFQMKAEEETDEEKPKNPMVELFYGRFLAVGVLEGKKFENTEMFGQYPLQVNGFKDLHECLEAAMIEGEIESLHSENSGKSGQEHWFTELPPVLTFELSRFEFNQALGRPEKIHNKLEFPQVLYLDRYMHRNREITRIKREEIKRLKDYLTVLQQRLERYLSYGSGPKRFPLVDVLQYALEFASSKPVCTSPVDDIDASSPPSGSIPSQTLPSTTEQQGALSSELPSTSPSSVAAISSRSVIHKSETQSRIPPDLPMHPAPRHITEEELSVLESCLHRWRTEIENDTRDLQESISRIHRTIELMYSDKSMIQVPYRLHAVLVHEGQANAGHYWAYIFDHRESRWMKYNDIAVTKSSWEELVRDSFGGYRNASAYCLMYINDKAQFLIQEEFNKETGQPLVGIETLPPDLRDFVEEDNQRFEKELEEWDAQLAQKALQE
notes: source: E. coli Rosetta2(DE3)pLacI, purified (HisTrap, 3C protease, Resource Q, size exclusion)
B4: Human USP25 (157-714) P521A (domain or fragment, UniProt Q9UHP3 157-714, looked up)
chain: B3 chain with S365A, E366F
notes: as for B3
B5: Human USP25 (157-714) F522L (domain or fragment, UniProt Q9UHP3 157-714, looked up)
chain: B3 chain with S365P, E366L
notes: as for B3
B6: Human USP25 (157-714) Q524S (domain or fragment, UniProt Q9UHP3 157-714, looked up)
chain: B3 chain with S365P, E366F, Q368S
notes: as for B3
B7: Chimera: Human USP25 (157-[AIM of Human USP28]-714) (domain or fragment)
chain: B3 chain with R359S, S360L, V361P, I362K, H363S, S365P, E366L, Q368S, I371S, P372S
B8: Human USP25 (157-714) F522A (domain or fragment, UniProt Q9UHP3 157-714, looked up)
chain: B3 chain with S365P, E366A
notes: as for B3
B9: Human USP28 (1-1077) (enzyme, UniProt Q96RU2 1-1077, looked up)
chain: MTAELQQDDAAGAADGHGSSCQMLLNQLREITGIQDPSFLHEALKASNGDITQAVSLLTDERVKEPSQDTVATEPSEVEGSAANKEVLAKVIDLTHDNKDDLQAAIALSLLESPKIQADGRDLNRMHEATSAETKRSKRKRCEVWGENPNPNDWRRVDGWPVGLKNVGNTCWFSAVIQSLFQLPEFRRLVLSYSLPQNVLENCRSHTEKRNIMFMQELQYLFALMMGSNRKFVDPSAALDLLKGAFRSSEEQQQDVSEFTHKLLDWLEDAFQLAVNVNSPRNKSENPMVQLFYGTFLTEGVREGKPFCNNETFGQYPLQVNGYRNLDECLEGAMVEGDVELLPSDHSVKYGQERWFTKLPPVLTFELSRFEFNQSLGQPEKIHNKLEFPQIIYMDRYMYRSKELIRNKRECIRKLKEEIKILQQKLERYVKYGSGPARFPLPDMLKYVIEFASTKPASESCPPESDTHMTLPLSSVHCSVSDQTSKESTSTESSSQDVESTFSSPEDSLPKSKPLTSSRSSMEMPSQPAPRTVTDEEINFVKTCLQRWRSEIEQDIQDLKTCIASTTQTIEQMYCDPLLRQVPYRLHAVLVHEGQANAGHYWAYIYNQPRQSWLKYNDISVTESSWEEVERDSYGGLRNVSAYCLMYINDKLPYFNAEAAPTESDQMSEVEALSVELKHYIQEDNWRFEQEVEEWEEEQSCKIPQMESSTNSSSQDYSTSQEPSVASSHGVRCLSSEHAVIVKEQTAQAIANTARAYEKSGVEAALSEVMLSPAMQGVILAIAKARQTFDRDGSEAGLIKAFHEEYSRLYQLAKETPTSHSDPRLQHVLVYFFQNEAPKRVVERTLLEQFADKNLSYDERSISIMKVAQAKLKEIGPDDMNMEEYKKWHEDYSLFRKVSVYLLTGLELYQKGKYQEALSYLVYAYQSNAALLMKGPRRGVKESVIALYRRKCLLELNAKAASLFETNDDHSVTEGINVMNELIIPCIHLIINNDISKDDLDAIEVMRNHWCSYLGQDIAENLQLCLGEFLPRLLDPSAEIIVLKEPPTIRPNSPYDLCSRFAAVMESIQGVSTVTVK
notes: USP28, human, residues 1-1077 (1,077 aa); also called full-length USP28; source: E. coli Rosetta2(DE3)pLacI, purified (HisTrap, 3C protease, Resource Q, size exclusion)
B10: Human USP28 (149-703) L415E I419E (domain or fragment, UniProt Q96RU2 149-703, looked up)
chain: PNPNDWRRVDGWPVGLKNVGNTCWFSAVIQSLFQLPEFRRLVLSYSLPQNVLENCRSHTEKRNIMFMQELQYLFALMMGSNRKFVDPSAALDLLKGAFRSSEEQQQDVSEFTHKLLDWLEDAFQLAVNVNSPRNKSENPMVQLFYGTFLTEGVREGKPFCNNETFGQYPLQVNGYRNLDECLEGAMVEGDVELLPSDHSVKYGQERWFTKLPPVLTFELSRFEFNQSLGQPEKIHNKLEFPQIIYMDRYMYRSKELIRNKRECIRKEKEEEKILQQKLERYVKYGSGPARFPLPDMLKYVIEFASTKPASESCPPESDTHMTLPLSSVHCSVSDQTSKESTSTESSSQDVESTFSSPEDSLPKSKPLTSSRSSMEMPSQPAPRTVTDEEINFVKTCLQRWRSEIEQDIQDLKTCIASTTQTIEQMYCDPLLRQVPYRLHAVLVHEGQANAGHYWAYIYNQPRQSWLKYNDISVTESSWEEVERDSYGGLRNVSAYCLMYINDKLPYFNAEAAPTESDQMSEVEALSVELKHYIQEDNWRFEQEVEEWEEEQSCKI
notes: also called variant with the insertion-destabilizing mutation; source: E. coli Rosetta2(DE3)pLacI, purified (HisTrap, 3C protease, Resource Q, size exclusion)
B11: Flag-USP25 (2-1055) (enzyme, human, UniProt Q9UHP3 2-1055, looked up)
chain: TVEQNVLQQSAAQKHQQTFLNQLREITGINDTQILQQALKDSNGNLELAVAFLTAKNAKTPQQEETTYYQTALPGNDRYISVGSQADTNVIDLTGDDKDDLQRAIALSLAESNRAFRETGITDEEQAISRVLEASIAENKACLKRTPTEVWRDSRNPYDRKRQDKAPVGLKNVGNTCWFSAVIQSLFNLLEFRRLVLNYKPPSNAQDLPRNQKEHRNLPFMRELRYLFALLVGTKRKYVDPSRAVEILKDAFKSNDSQQQDVSEFTHKLLDWLEDAFQMKAEEETDEEKPKNPMVELFYGRFLAVGVLEGKKFENTEMFGQYPLQVNGFKDLHECLEAAMIEGEIESLHSENSGKSGQEHWFTELPPVLTFELSRFEFNQALGRPEKIHNKLEFPQVLYLDRYMHRNREITRIKREEIKRLKDYLTVLQQRLERYLSYGSGPKRFPLVDVLQYALEFASSKPVCTSPVDDIDASSPPSGSIPSQTLPSTTEQQGALSSELPSTSPSSVAAISSRSVIHKPFTQSRIPPDLPMHPAPRHITEEELSVLESCLHRWRTEIENDTRDLQESISRIHRTIELMYSDKSMIQVPYRLHAVLVHEGQANAGHYWAYIFDHRESRWMKYNDIAVTKSSWEELVRDSFGGYRNASAYCLMYINDKAQFLIQEEFNKETGQPLVGIETLPPDLRDFVEEDNQRFEKELEEWDAQLAQKALQEKLLASQKLRESETSVTTAQAAGDPEYLEQPSRSDFSKHLKEETIQIITKASHEHEDKSPETVLQSAIKLEYARLVKLAQEDTPPETDYRLHHVVVYFIQNQAPKKIIEKTLLEQFGDRNLSFDERCHNIMKVAQAKLEMIKPEEVNLEEYEEWHQDYRKFRETTMYLIIGLENFQRESYIDSLLFLICAYQNNKELLSKGLYRGHDEELISHYRRECLLKLNEQAAELFESGEDREVNNGLIIMNEFIVPFLPLLLVDEMEEKDILAVEDMRNRWCSYLGQEMEPHLQEKLTDFLPKLLDCSMEIKSFHEPPKLPSYSTHELCERFARIMLSLSRTPADGR
notes: tetrameric and dimeric populations; also called FLAG-tagged USP25; ectopically expressed wild-type USP25; source: HEK293, transfected (pOPINE), in lysate; not shown: Flag, N-terminal, kept
B12: Flag-USP25 (2-1055) P521S F522E (enzyme, human, UniProt Q9UHP3 2-1055, looked up)
chain: B11 chain with P520S, F521E
notes: also called USP25 mutated in the AIM (P521S F522E); source: HEK293, transfected (pOPINE), in lysate; not shown: Flag, N-terminal, kept

One data set concerns the molecule itself. The data set can be described thus: SEC-MALS; 100 μL of 1-2 mg/mL protein on Superdex 200 10/300, 0.5 mL/min, PBS + 2 mM DTT. A general note: In gel filtration, larger molecules generally elute earlier.
With B1, the stoichiometry N (usually a count of units in the complex or per binding partner) worked out at 2. B2: the “stoichiometry N” value was 2. In the case of B3, the “stoichiometry N” value worked out at 2. For B4, the “stoichiometry N” value was 2. On the same count and under the same terms, to B5 belongs 2. Still for that read-out and setting: the value for B6 was 2; that for B7 was 2; that for B8 was 2. In the case of B9, the “stoichiometry N” value stood at 2. On the same count and under the same terms, to B10 belongs 2.

Another data set concerns the molecule itself. The data set can be described thus: native gel or EMSA; native PAGE of lysates of HEK293 cells transfected with FLAG- or HA-tagged proteins, immunoblotting; recombinant USP25 tetramer and dimer fractions as size standard.
With B11, the “stoichiometry N” value is 4 and 2.

B12: the “stoichiometry N” value was determined as 2.
